Reference: paper PMC4592898, “Biochemical Characterisation of Phage Pseudomurein Endoisopeptidases PeiW and PeiP Using Synthetic Peptides” (Archaea, 2015)

B1: PeiP (Methanobacterium phage psiM2) (protein)
chain: MRSNSVNIETFKDMLKRYEDFKMKNKREPRVIFIRSGGGESIPLETFRDMVRRYNNFKDRYGREPRIVYVTPPEPPVPEVNENTPEYVSITQFKDMLSRYNRFKEVNGREPRVVFIYSGGGPSVSLETFKDMCKRYNQFLEENRREPRIVYVTPPEPPVPEEVREMRRVLGEFKTATQLYTLVSRRCKYKFYYNDQTPNREALKKMVTDGINCTDACQLFKPVIEGLGYSVRIEHVKVRCNDNKWYGHYFLRVAGKELASVSLPSERWTVWDYVSATKTGRPLGAPCCSRGIQHLGWGIVSPKHD
notes: N-terminal His-tag kept, pET151D, E. coli BL21-Rosetta 2; 338 residues and 39,537 Da with tag; monomer
B2: PeiW (Methanothermobacter phage psiM100) (protein)
chain: MEVGLNEFLDMKKRYEDFKMKNKREPRYVTTKNGYKVMLPVFKDMLRRYEDFVRINGREPNYISIQPQPNGKIEIKKFRDMLRRYEDFVRINGREPNIIYLEQGKSDHVSLGTFKDMLRRYKDFVRINGREPNYISIQPQPSLKGHWTTKVIEKIGTFHDATSLYERVKKTCKYKYYYNDQVPNHVAVMRMTTSGINCTDACQLFSKVLEEMGYEVKIEHVRVKCNDGKWYGHYLLRVGGFELKDGTIWDYVSATKTGRPLGVPCCTAGFQHLGWGIVGPVYDK
notes: N-terminal His-tag kept, pET151D, E. coli BL21-Rosetta 2; 317 residues and 37,219 Da with tag; monomer

Key:
purified protein [1] = substrate: C[C@H](NC(=O)CC[C@H](N)C(=O)O)C(=O)Nc1ccc([N+](=O)[O-])cc1; assay: purified protein; assay type: biochemical, Methanobacterium phage psiM2; details: 60 °C, pH 7.85 Bistris propane, 10 mM CaCl2, 10 mM TCEP, aerobic, substrate range below Km
purified protein [2] = substrate: C[C@H](NC(=O)CC[C@H](N)C(=O)O)C(=O)Nc1ccc([N+](=O)[O-])cc1; assay: purified protein; assay type: biochemical, Methanothermobacter phage psiM100; details: 60 °C, pH 7.85 Bistris propane, 10 mM CaCl2, 10 mM TCEP, aerobic, substrate range limited to about 1 x Km

Protein	Km (purified protein [1]) [mM]	kcat (purified protein [1]) [s⁻¹]	Km (purified protein [2]) [mM]	kcat (purified protein [2]) [s⁻¹]
B1	4.14 ± 0.14	1.18 ± 0.03		
B2			6.25 ± 0.44	5.73 ± 0.22
